# Assay results: patent US20110223127A1 (NOXXON PHARMA, published 2011)
# B1: human CXCR4-receptor (receptor, UniProt P61073 1-352, looked up)
# chain: MEGISIYTSDNYTEEMGSGDYDSMKEPCFREENANFNKIFLPTIYSIIFLTGIVGNGLVILVMGYQKKLRSMTDKYRLHLSVADLLFVITLPFWAVDAVANWYFGNFLCKAVHVIYTVNLYSSVLILAFISLDRYLAIVHATNSQRPRKLLAEKVVYVGVWIPALLLTIPDFIFANVSEADDRYICDRFYPNDLWVVVFQFQHIMVGLILPGIVILSCYCIIISKLSHSKGHQKRKALKTTVILILAFFACWLPYYIGISIDSFILLEIIKQGCEFENTVHKWISITEALAFFHCCLNPILYAFLGAKFKTSAQHALTSVSRGSSLKILSKGKRGGHSSVSTESESSSFHSS
# notes: whole, on cells; also called SDF-1 receptor
# Biological target: T1, human [^125J]-SDF-1α (human, UniProt P48061 22-89, 125J (iodine-125) label, position not stated)
# T1 construct: Bought from PerkinElmer; also called radiolabelled human SDF-1; CXCL12
# T1 sequence (P48061 22-89): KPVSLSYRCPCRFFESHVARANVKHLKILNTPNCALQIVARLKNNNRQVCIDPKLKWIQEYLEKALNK
# Test: radioligand binding of human [125J]-SDF-1 to CHO cells expressing human CXCR4, scintillation counting (total binding, cpm); the blocker varied is the nucleic acid Spiegelmer 192-A10-001, preincubated with the ligand
# Protocol: For binding assays CXCR4-expressing cells were seeded into polylysine-coated 24-well plates at a cell density of 1×10⁵ cells/well and cultivated overnight at 37° C. and 5% CO₂ in CHO-Ultra medium (Cambrex, Verviers, Belgium) containing 50 units/ml penicillin, 50 μg/ml streptomycin and 0.5 mg/ml geneticin.
# For the binding experiment, the medium was removed and the cells were washed once with Hanks balanced salt solution, additionally containing 20 mM HEPES, 1 mg/ml bovine serum albumin, 0.1 mg/ml bacitracin (HBB). Then the cells were incubated in 0.2 ml HBB for 1 h at room temperature together with […] [¹²⁵J]-SDF-1 (PerkinElmer, Rodgau, Germany) and varying concentrations of Spiegelmer.
# Non-specific binding was determined by adding unlabeled human SDF-1 (R & D Systems, Wiesbaden, Germany) to a final concentration of 0.5 μM to several wells.
binder,measurement,value
B1,binding result,binds
